The values that follow come from PMC10345426, “Structural polymorphism of the PH domain in TFIIH” (Bioscience Reports, 2023).

Like-named read-outs stand apart in the source and are kept apart here.

For test [1], the target named is TFIIH p62 PH (Homo sapiens) (UniProt P32780). The settings on record: cited from earlier work.
For test [2] the target is unchanged. The following applies: cited from earlier work. This is another data set of the same source.
Test [3] has as its target TFIIH Tfb1 PH (Saccharomyces cerevisiae) (UniProt P32776). The settings on record: cited from earlier work.
In test [4] the target is T1, PH domain of fission yeast (Schizosaccharomyces pombe) Tfb1, residues 1-108 (Schizosaccharomyces pombe, UniProt O13745 1-108).
T1 construct: General transcription and DNA repair factor IIH subunit tfb1 (spTfb1), Schizosaccharomyces pombe, UniProt name TFB1_SCHPO, N-terminal PH domain, residues 1-108; 15N-labelled in the NMR titration; Residues of the vector may be left at the N-terminus after thrombin cleavage (surmised); also called spPH; spPH domain; source: E. coli BL21-Gold (DE3), pET15b, purified (His-tag resin, thrombin …)
T1 sequence (looked up): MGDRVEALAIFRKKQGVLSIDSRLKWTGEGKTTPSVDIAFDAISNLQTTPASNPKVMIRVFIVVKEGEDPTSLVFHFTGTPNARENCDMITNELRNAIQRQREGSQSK
The experiment in a line: ITC; VP-ITC; syringe 300 uM peptide, cell 2 ml of 30 uM spPH domain; 25 x 20 ul injections; 20 mM potassium phosphate pH 6.8, 20°C. The following applies: both partners purified. Background: ITC needs no label: the signal is the heat of the interaction.

Usually Kd stands for the concentration at which binding is half-saturated.

Sequence of TFIIH p62 PH (Homo sapiens) (P32780 1-108): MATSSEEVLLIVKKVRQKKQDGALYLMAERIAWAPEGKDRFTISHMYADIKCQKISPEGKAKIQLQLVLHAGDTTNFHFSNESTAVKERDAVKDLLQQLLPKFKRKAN
Sequence of TFIIH Tfb1 PH (Saccharomyces cerevisiae) (P32776 1-115): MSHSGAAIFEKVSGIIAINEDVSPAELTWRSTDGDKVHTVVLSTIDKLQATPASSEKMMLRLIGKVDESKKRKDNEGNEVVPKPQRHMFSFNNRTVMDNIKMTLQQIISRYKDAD

Turning to “TFIIEα acidic domain (from UniProt P29083)”, in test [1], the dissociation constant Kd is 95 nM.

“hXPC acidic string (from UniProt Q01831)”: the dissociation constant (Kd) in test [2] is 58 nM.

As to “scRad4 acidic string (from UniProt P14736)”, the Kd in test [3] is 50 nM.

B1: spRhp41(4-22) peptide, N-terminal acidic string of fission yeast Rhp41 (peptide, UniProt Q10445 4-22, looked up)
peptide: DEDNTYSDDEEWLDLDLGL
notes: Rhp41 (homologue of human XPC and S. cerevisiae Rad4), Schizosaccharomyces pombe, residues 4-22 (holds Trp15, Leu16, Leu18, Leu20, Leu22); source: synthetic peptide, bought: GenScript
In the case of B1, in test [4], the Kd came to 52.1 ± 13.5 nM.

B2: spTfa1(332-350) peptide, acidic segment of fission yeast Tfa1 (peptide, UniProt Q9P3W1 332-350, looked up)
peptide: DSENVDDEEDDDFLDVTTA
notes: source: synthetic peptide, bought: GenScript
Consider B2, for which binding in test [4] was characterised by a dissociation constant (Kd) of 148 ± 41.3 nM.

B3: spTfa1(416-434) peptide, C-terminal acidic segment of fission yeast Tfa1 (peptide, UniProt Q9P3W1 416-434, looked up)
peptide: NGFNEDDEDDEDEADFEDV
notes: Tfa1 (homologue of human TFIIEalpha), Schizosaccharomyces pombe, residues 416-434; source: synthetic peptide, bought: GenScript
Consider B3, for which the affinity in test [4], expressed as Kd, was 12.4 ± 6.5 nM.
